# Patent US20250215089A1 (HARBOUR BIOMED SHANGHAI, published 2025)
# Residue numbers refer to the chain shown, from its start. Names may count otherwise.
# B1: PR007280 (bispecific antibody, human IgG1, kappa)
# heavy: QVQLVESGGGVVQPGMSLRLSCAASGFDFSSYGMYWVRQAPGKGQEWVASIRYTGTEKHYADSVKGRFTISRDNSKNTLYLEMNSLRVEDTAVYYCAKNRAIFGVVPDASDIRGQGTMVTVSSGGGGSQVQLVQSGAEVKKPGASVKVSCKASGYTFAGYYMYWVRQAPGQGLEWMGWINPDSGAPTYAQKFQGRVTMTRDTSISTAYMELSRLRSDDTAVYYCAREKIYYGSGNYYPSFDYWGQGTLVTVSSASTKGPSVFPLAPSSKSTSGGTAALGCLVKDYFPEPVTVSWNSGALTSGVHTFPAVLQSSGLYSLSSVVTVPSSSLGTQTYICNVNHKPSNTKVDKKVEPKSCDKTHTCPPCPAPEAAGAPSVFLFPPKPKDTLMISRTPEVTCVVVDVSHEDPEVKFNWYVDGVEVHNAKTKPREEQYNSTYRVVSVLTVLHQDWLNGKEYKCKVSNKALPAPIEKTISKAKGQPREPQVYTLPPSREEMTKNQVSLTCLVKGFYPSDIAVEWESNGQPENNYKTTPPVLDSDGSFFLYSKLTVDKSRWQQGNVFSCSVMHEALHNHYTQKSLSLSPGK
# light: DIQLTQSPSFLSASVGDRVTITCRASQGISSYLAWYQQKPGKAPKLLIYAASTLQSGVPSRFSGSGSGTEFTLTISSLQPEDFATYYCQQLVSYPWTFGQGTKVEIKRTVAAPSVFIFPPSDEQLKSGTASVVCLLNNFYPREAKVQWKVDNALQSGNSQESVTEQDSKDSTYSLSSTLTLSKADYEKHKVYACEVTHQGLSSPVTKSFNRGEC
# notes: VH of PR006245 (PD-L1) - GS_5 - heavy chain of CD40 IgG PR006504; human IgG1 L234A/L235A/G237A; also called PD-L1×CD40
# B2: PR007617 (bispecific antibody, human IgG1, kappa)
# heavy: QVQLVESGGGVVQPGMSLRLSCAASGFDFSSYGMYWVRQAPGKGQEWVASIRYTGTEKHYADSVKGRFTISRDNSKNTLYLEMNSLRVEDTAVYYCAKNRAIFGVIPDDSDIRGQGTMVTVSSGGSQVQLVQSGAEVKKPGASVKVSCKASGYTFAGYYMYWVRQAPGQGLEWMGWINPDSGAPTYAQKFQGRVTMTRDTSISTAYMELSRLRSDDTAVYYCAREKIYYGSGNYYPSFDYWGQGTLVTVSSASTKGPSVFPLAPSSKSTSGGTAALGCLVKDYFPEPVTVSWNSGALTSGVHTFPAVLQSSGLYSLSSVVTVPSSSLGTQTYICNVNHKPSNTKVDKKVEPKSCDKTHTCPPCPAPEAAGAPSVFLFPPKPKDTLMISRTPEVTCVVVDVSHEDPEVKFNWYVDGVEVHNAKTKPREEQYNSTYRVVSVLTVLHQDWLNGKEYKCKVSNKALPAPIEKTISKAKGQPREPQVYTLPPSREEMTKNQVSLTCLVKGFYPSDIAVEWESNGQPENNYKTTPPVLDSDGSFFLYSKLTVDKSRWQQGNVFSCSVMHEALHNHYTQKSLSLSPGK
# light: B1 light with V92A
# notes: VH of PR006246 (PD-L1) - GS_3 - heavy chain of CD40 IgG PR006495; human IgG1 L234A/L235A/G237A; also called PD-L1×CD40
# B3: PR007616 (bispecific antibody, human IgG1, kappa)
# heavy: B1 heavy with I102L, V106I, A109D
# light: B1 light with V92Y
# notes: VH of PR006248 (PD-L1) - GS_5 - heavy chain of CD40 IgG PR006497; human IgG1 L234A/L235A/G237A; also called PD-L1×CD40
# B4: PR007618 (bispecific antibody, human IgG1, kappa)
# heavy: B2 heavy with I102L
# light: B1 light with V92A
# notes: VH of PR006248 (PD-L1) - GS_3 - heavy chain of CD40 IgG PR006495; human IgG1 L234A/L235A/G237A; also called PD-L1×CD40
# B5: PR007556 (bispecific antibody, human IgG1, kappa)
# heavy: B1 heavy with I102L, V106I, A109D
# light: B1 light with V92F
# notes: VH of PR006248 (PD-L1) - GS_5 - heavy chain of CD40 IgG PR006496; human IgG1 L234A/L235A/G237A; also called PD-L1×CD40
# B6: PR007282 (bispecific antibody, human IgG1, kappa)
# heavy: B1 heavy with I102L, V106I
# light: B1 light
# notes: VH of PR006247 (PD-L1) - GS_5 - heavy chain of CD40 IgG PR006504; human IgG1 L234A/L235A/G237A; also called PD-L1×CD40
# B7: PR007281 (bispecific antibody, human IgG1, kappa)
# heavy: B1 heavy with V106I, A109D
# light: B1 light
# notes: VH of PR006246 (PD-L1) - GS_5 - heavy chain of CD40 IgG PR006504; human IgG1 L234A/L235A/G237A; also called PD-L1×CD40
# Assays:
# human PD-L1 [1] = target: T1, human PD-L1 (human, UniProt Q9NZQ7 19-290); experiment: FACS, CHO-K1/hPD-L1 cells
# T1 construct: whole, on cells; also called hPD-L1; CD274
# Procedure: (§1) Specifically, the cells expressing PD-L1 were digested and resuspended in PBS buffer containing 2% BSA. The cells were adjusted to a cell density of 1×10⁶ cells/mL, respectively. The cells were seeded in a 96-well V-bottom plate (Corning, #3894) at 100 μL/well, and the antibody to be tested at 2×final concentration with 4-fold concentration gradient dilution was then added at 100 μL/well. The cells were incubated at 4° C. for 2 hours in the dark. After the incubation, the cells were rinsed twice by adding pre-chilled PBS containing 2% BSA at 100 μL/well, and centrifuged at 500 g at 4° C. for 5 minutes, and the supernatant was discarded. […] The cells were washed twice by adding pre-chilled PBS containing 2% BSA at 100 µL/well, and centrifuged at 500 g at 4° C. for 5 minutes, and the supernatant was discarded. Finally, the cells were resuspended in pre-chilled PBS buffer containing 2% BSA at 200 μL/well. The fluorescence signal values were read using a BD FACS CANTOII flow cytometer or ACEA NovoCyte flow cytometer, and the data were processed and analyzed using FlowJo v10 software (FlowJo, LLC).
# human PD-L1 [2] = target: T1, human PD-L1; experiment: cell-based or functional assay
# human CD40 [3] = target: T2, human CD40 (human, UniProt P25942 21-277); experiment: FACS, Raji cells
# T2 construct: whole, on cells; also called hCD40; TNFRSF5
# Procedure: (§2) The cells were incubated at 4° C. for 1 hours in the dark. After the incubation, the cells were rinsed twice by adding pre-chilled PBS at 100 μL/well, and centrifuged at 500 g at 4° C. for 5 minutes, and the supernatant was discarded. Then, a fluorescent secondary antibody (goat anti-human IgG (H+L) secondary antibody, Alexa Fluor® 488 conjugate, Invitrogen, #A11013, 1:1000 dilution) was added at 100 μL/well, and the cells were incubated at 4° C. for 30 minutes in the dark. The cells were washed twice with pre-chilled PBS at 200 μL/well, and centrifuged at 500 g at 4° C. for 5 minutes, and the supernatant was discarded. Finally, the cells were resuspended in pre-chilled PBS at 200 μL/well. The fluorescence signal values were read using a BD FACS CANTOII flow cytometer or ACEA NovoCyte flow cytometer, and the data were processed and analyzed using FlowJo v10 software (FlowJo, LLC).
# human CD40 [4] = target: T2, human CD40; experiment: FACS, CHO-K1/hCD40 cells
# Procedure: as §2
# cynomolgus monkey PD-L1 = target: T3, cynomolgus monkey PD-L1 (cynomolgus monkey); experiment: FACS, CHO-K1/cyPD-L1 cells
# T3 construct: whole, on cells; also called cyPD-L1
# Procedure: as §1
# human PD-L1 [5] = target: T1, human PD-L1; experiment: FACS, NCI-H226 cells
# Procedure: as §1
# cynomolgus monkey CD40 = target: T4, cynomolgus monkey CD40 (cynomolgus monkey); experiment: FACS, CHO-K1/cyCD40 cells
# T4 construct: whole, on cells; also called cyCD40
# Procedure: as §2
# T1 sequence (Q9NZQ7 19-290): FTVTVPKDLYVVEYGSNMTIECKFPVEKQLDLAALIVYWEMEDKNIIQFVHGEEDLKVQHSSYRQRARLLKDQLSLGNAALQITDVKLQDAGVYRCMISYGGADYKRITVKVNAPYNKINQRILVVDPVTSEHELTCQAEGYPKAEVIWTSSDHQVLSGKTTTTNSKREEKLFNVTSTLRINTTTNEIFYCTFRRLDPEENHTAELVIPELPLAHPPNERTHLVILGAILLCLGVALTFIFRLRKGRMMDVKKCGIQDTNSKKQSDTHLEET
# T2 sequence (P25942 21-277): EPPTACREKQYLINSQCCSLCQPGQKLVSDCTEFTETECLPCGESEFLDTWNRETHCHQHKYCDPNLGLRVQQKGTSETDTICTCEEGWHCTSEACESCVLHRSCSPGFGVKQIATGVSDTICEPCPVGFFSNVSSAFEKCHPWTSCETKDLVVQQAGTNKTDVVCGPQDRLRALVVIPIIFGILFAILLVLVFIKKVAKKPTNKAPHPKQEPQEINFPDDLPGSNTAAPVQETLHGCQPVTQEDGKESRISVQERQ
Binder,EC50 (human PD-L1 [1]) [nM],Maximum MFI (human PD-L1 [1]) [MFI],"EC50, Jurkat-NFAT-hPD1 reporter (human PD-L1 [2]) [nM]","Maximum (RLU), Jurkat-NFAT-hPD1 reporter (human PD-L1 [2]) [RLU]",EC50 (human CD40 [3]) [nM],Maximum MFI (human CD40 [3]) [MFI],EC50 (human CD40 [4]) [nM],Maximum MFI (human CD40 [4]) [MFI],EC50 (cynomolgus monkey PD-L1) [nM],Maximum MFI (cynomolgus monkey PD-L1) [MFI],EC50 (human PD-L1 [5]) [nM],Maximum MFI (human PD-L1 [5]) [MFI],EC50 (cynomolgus monkey CD40) [nM],Maximum MFI (cynomolgus monkey CD40) [MFI]
B1,1.58,20200,0.295,2560,1.65,7700,3.83,15000,1.02,4830,1.02,1020,2.65,50100
B2,1.01,20200,0.157,2190,1.27,6850,1.96,16800,0.635,4830,0.337,831,2.45,58700
B3,1.07,20300,0.204,2590,1.24,6680,1.99,19200,0.687,4750,0.303,800,2.22,64700
B4,1.04,20100,0.12,2470,1.23,6700,2.22,16800,0.69,4870,0.322,902,3.07,67900
B5,1.03,20100,0.225,4080,1.28,6560,1.69,14600,0.683,4720,0.452,861,2.58,55500
B6,1.46,20400,0.188,2480,1.45,7520,1.88,13500,0.834,4620,0.61,983,2.43,50100
B7,1.13,19900,0.19,3840,1.46,7600,2.13,14200,0.632,4610,0.503,921,3.63,65000
